Data set [1] has as its target T1, Mre11ND Y187C (Pyrococcus furiosus, UniProt Q8U1N9 1-342, Y187C). In words: fluorescence polarization. Background: In fluorescence polarisation assays a small probe gives low polarisation when free and higher when bound to something large.
Data set [2] has as its target T2, Mre11ND H52S (Pyrococcus furiosus, UniProt Q8U1N9 1-342, H52S). In words: fluorescence polarization.
Data set [3] addresses T3, Mre11ND WT (Pyrococcus furiosus, UniProt Q8U1N9 1-342). In words: fluorescence polarization.
The target of data set [4] is T4, Mre11ND Y187F (Pyrococcus furiosus, UniProt Q8U1N9 1-342, Y187F). In words: fluorescence polarization.
Data set [5] addresses T5, Mre11 Y187C (in MRNBD);Rad50NBD (Pyrococcus furiosus;Pyrococcus furiosus, UniProt Q8U1N9;P58301 1-426;1-195+709-882, Y187C|internal_change). In words: fluorescence polarization.
For data set [6], the target named is T6, Mre11 Y187F (in MRNBD);Rad50NBD (Pyrococcus furiosus;Pyrococcus furiosus, UniProt Q8U1N9;P58301 1-426;1-195+709-882, Y187F|internal_change). In words: fluorescence polarization.
Data set [7] deals with T7, Mre11 WT (in MRNBD);Rad50NBD (Pyrococcus furiosus;Pyrococcus furiosus, UniProt Q8U1N9;P58301 1-426;1-195+709-882, |internal_change). The experiment in a line: fluorescence polarization.
The target of data set [8] is T8, Mre11 H52S (in MRNBD);Rad50NBD (Pyrococcus furiosus;Pyrococcus furiosus, UniProt Q8U1N9;P58301 1-426;1-195+709-882, H52S|internal_change). In words: fluorescence polarization.
Data set [9] concerns the target T1, Mre11ND Y187C. In words: fluorescence polarization. This is another data set of the same source.
Data set [10] addresses T3, Mre11ND WT. In words: fluorescence polarization. This is another data set of the same source.
For data set [11], the target named is T2, Mre11ND H52S. In words: fluorescence polarization. The source holds these as a separate data set.
The target in data set [12] is T4, Mre11ND Y187F. In words: fluorescence polarization. The source holds these as a separate data set.
Data set [13] concerns the target T5, Mre11 Y187C (in MRNBD);Rad50NBD. In words: fluorescence polarization. The source holds these as a separate data set.
The target in data set [14] is T6, Mre11 Y187F (in MRNBD);Rad50NBD. The experiment in a line: fluorescence polarization. The source holds these as a separate data set.
Data set [15] deals with T7, Mre11 WT (in MRNBD);Rad50NBD. The experiment in a line: fluorescence polarization. The source holds these as a separate data set.
The target of data set [16] is T8, Mre11 H52S (in MRNBD);Rad50NBD. The experiment in a line: fluorescence polarization. This is another data set of the same source.
Data set [17] deals with T4, Mre11ND Y187F. The experiment in a line: NMR imino proton melting.

Where two headings read alike, the source gives them in different places.

Usually Kd stands for the constant that tells how readily two partners part at equilibrium. A low value points to tighter binding. For the molecule GTGTTCGGACTCTGCCTCAAGACGGTAGTCAACGTGCTTG (ssDNA) [FAM 40-mer ssDNA], the Kd in [1] was 240 nM; in [2], 170 nM; in data set [3], 130 nM; in data set [4], 110 nM; in data set [5], 210 nM; in data set [6], 190 nM. In addition, the equilibrium dissociation constant (Kd) in data set [7] came out at 180 nM; in [8], 170 nM.

B1: FAM 40-mer dsDNA (dsDNA)
DNA 1: GTGTTCGGACTCTGCCTCAAGACGGTAGTCAACGTGCTTG
DNA 2: CAAGCACGTTGACTACCGTCTTGAGGCAGAGTCCGAACAC
B1: the dissociation constant Kd in data set [9] was determined as 1980 nM; in [10] it was 1300 nM; in data set [11], 3170 nM; in [12], 710 nM; in [13] it was 1800 nM; in [14], 1320 nM. Moreover, the Kd in data set [15] amounted to 1410 nM; in data set [16] it was 4170 nM.

In the case of CACGCACGTAGAAGCTTTTGCTTCTACGTGCGTGACT (structured_DNA) [hairpin dsDNA DSB mimic], the binding result in data set [17] was “binds”.
